B1: Pseudomonas aeruginosa pseudo dihydroorotase (natural protein, Pseudomonas aeruginosa (strain PAO1), UniProt Q51551 1-423, looked up)
chain: MTISIRGARVIDPASDLDQVGDLHIEAGKIVAIGAAPAGFSAQKTLDGAGLVAAPGLVDLSVALREPGYGRKGNVESETRAAAAGGTTSLCCPPYTRPVLDTPAVAELILDRAREAGNAKVYPIGALTRGFGGEQLSELVALRDTGCVAFTNGLHGFASNRILRRALEYAATFDLTVIFTSQDTDLAEGGLAHEGPTASFLGLAGIPETAETVALARNLLLVEQSGVRAHFSQLTSARGIELVAQAQARGLPVTCDVALYQLILTDEALVGFSSLYHVQPPLRTRADREALREAVKNGVVQAIASHHQPHEADAKNAPFAATEPGISGAELLLPLAMTLVQDGLLDLPTLLARLSHGPAQALRLPAGRLAVGQAADLVLFDPQGSTLAGESWYSKGQNSPFVGHCLPGRVRYTLVDGHLTHEG
notes: Dimer by size exclusion chromatography; also called pDHO; pseudo-DHO; source: also co-transformed and co-purified with mutant ATCases
B2: Pseudomonas aeruginosa aspartate transcarbamoylase catalytic chain (enzyme, Pseudomonas aeruginosa (strain PAO1), UniProt Q59653 1-334, looked up)
chain: MPTDAKRPLQLNDQGQLRHFISLDGLPRELLTEILDTADSFLEVGARAVKKVPLLRGKTVCNVFFENSTRTRTTFELAAQRLSADVISLNVSTSSTSKGETLTDTLRNLEAMAADMFVVRHSDSGAAHFIAEHVSPNVAVINGGDGRHAHPTQGMLDMLTIRRHKGNFEQLSVAIVGDILHSRVARSNMLALKTLGCPDIRVIAPRTLLPIGLEEQYGVRVFTNADEGLKDVDVVIMLRLQRERMQGGLLPSEGEFFKLYGLTEKRLKLAKPDAIVMHPGPINRGVEIESAVADGAQSVILNQVTYGIAIRMAVLSMAMSGQNTQRQLEQEDAE
notes: Aspartate transcarbamoylase (ATCase) catalytic chain of Pseudomonas aeruginosa strain PAO1, gene pyrB; about 36-37 kDa; The pyrB gene was amplified by PCR and put into pETite; Removal of the His tag is not mentioned; also called ATCase; ATCase subunit

Experiments:
[1] = biological target: T1, P. aeruginosa ATCase-pDHO complex (Pseudomonas aeruginosa, UniProt Q59653); assay: colorimetric ATCase assay, carbamoyl phosphate saturation curves; assay type: biochemical; details: 8 mM aspartate, 37°C; PALA 0-500 nM; bisubstrate inhibitor
T1 construct: gene pyrB; both full-length subunits with N-terminal 6xHis tag (pETite), E. coli BL21(DE3), Ni-purified, mixed 1:1; 37 kDa + 45 kDa, 457 kDa dodecamer; with Dihydroorotase-like protein
T1 sequence (Q59653 1-334): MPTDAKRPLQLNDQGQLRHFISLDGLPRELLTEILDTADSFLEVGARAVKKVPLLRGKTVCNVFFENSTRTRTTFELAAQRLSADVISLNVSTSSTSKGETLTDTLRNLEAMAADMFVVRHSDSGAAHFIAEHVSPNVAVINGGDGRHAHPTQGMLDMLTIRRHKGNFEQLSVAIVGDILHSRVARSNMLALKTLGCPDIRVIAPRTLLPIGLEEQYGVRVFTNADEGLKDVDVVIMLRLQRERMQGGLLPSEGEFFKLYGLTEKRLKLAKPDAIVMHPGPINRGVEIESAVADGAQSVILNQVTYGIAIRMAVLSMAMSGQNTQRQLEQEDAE
T1 sequence (Q51551 1-423 partner): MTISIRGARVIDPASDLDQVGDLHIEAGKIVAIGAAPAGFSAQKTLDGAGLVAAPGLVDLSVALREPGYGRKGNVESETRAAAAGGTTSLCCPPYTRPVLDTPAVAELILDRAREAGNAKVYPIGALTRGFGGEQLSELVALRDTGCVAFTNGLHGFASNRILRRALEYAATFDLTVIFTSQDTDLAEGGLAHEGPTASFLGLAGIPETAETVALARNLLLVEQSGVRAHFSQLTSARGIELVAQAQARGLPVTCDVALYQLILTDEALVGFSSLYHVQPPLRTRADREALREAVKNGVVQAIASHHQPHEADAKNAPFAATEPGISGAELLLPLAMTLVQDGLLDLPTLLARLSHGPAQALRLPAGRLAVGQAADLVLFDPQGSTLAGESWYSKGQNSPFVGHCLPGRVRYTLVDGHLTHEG

[2] = biological target: the molecule itself; assay: SEC; each Ni2+ column purified protein applied alone; Superdex S-200, 50 mM Tris-HCl pH 7.5, 200 mM NaCl; 2-mL sample of 5-10 mg/ml; calibrated column
[3] = biological target: B2; assay: cell-based or functional assay
[4] = substrate: N[C@@H](CC(=O)O)C(=O)O; assay: purified protein; assay type: biochemical, Pseudomonas aeruginosa; details: 10 mM carbamoyl phosphate, 50 mM Tris/acetate pH 8.3, 37°C, Hill fit
[5] = substrate: NC(=O)OP(=O)(O)O; assay: purified protein; assay type: biochemical, Pseudomonas aeruginosa; details: 8 mM aspartate, 50 mM Tris/acetate pH 8.3, 37°C, Hill fit, text b47 prints 2.5 mM, Table 3 (0 ATP series) 0.88 ± 0.03 mM
[6] = biological target: B1; assay: SEC; complex reconstituted by mixing equimolar amounts of ATCase and pDHO; Superdex S-200, 50 mM Tris-HCl pH 7.5, 200 mM NaCl; fractions on SDS-PAGE; details: both partners purified

`O=C(O)C[C@H](NC(=O)CP(=O)(O)O)C(=O)O` [N-phosphonacetyl-L-aspartate] was tested, and the “colorimetric ATCase assay, carbamoyl phosphate saturation curves” value [1] was “N-phosphonacetyl-L-aspartate is also a potent inhibitor of the of the P. aeruginosa enzyme”.

In the case of B1, the “stoichiometry N” value [2] is reported as 2 and the “ATCase activity of a fixed amount of ATCase (4 ug) titrated with pDHO (0-24.3 ug); molar ratio of ATCase to pDHO at which the activity levels off” value [3] is reported as 0.97 mol pDHO per mol ATCase.

B2 gave a K0.5 [4] of 3.6 ± 0.41 mM, a Vmax [4] of 183 µmol/min/mg and a kcat [4] of 113 s⁻¹. It also gave a kcat/Km [4] of 31000 M⁻¹ s⁻¹, a K0.5 [5] of 2.8 ± 0.18 mM and a Vmax [5] of 142 µmol/min/mg. For the same molecule, the kcat [5] was 87.6 s⁻¹, the kcat/Km [5] was 31000 M⁻¹ s⁻¹ and the binding result [6] was “binds”.
